Residue numbers refer to the chain shown, from its start.
B1: 2196 WT (recombinant mAb COV2-2196) (antibody, V domains shown)
VH: QMQLVQSGPEVKKPGTSVKVSCKASGFTFMSSAVQWVRQARGQRLEWIGWIVIGSGNTNYAQKFQERVTITRDMSTSTAYMELSSLRSEDTAVYYCAAPYCSSISCNDGFDIWGQGTMVTVSS
VL: not shown
notes: heavy chain of COV2-2196 (IGHV1-58); light chain of COV2-2196 (IGKV3-20); Whole human IgG (captured on Protein A, detected by anti-human Fc); HC vector with IgG VH leader (UniProt Q9Y298), LC vector with IGKV4-1 leader (UniProt P06312); also called WT 2196; COV-2196
B2: 2196 HC + 2072 LC (antibody, V domains shown)
VH: B1 VH
VL: not shown
notes: as the heavy chain of m2; light chain of antibody 2072 (IGKV3-20, clonally related to COV2-2196); Kabat numbering; also called DMAb-2196-HC + DMAb-2072-LC
B3: DMAb-2196_AFS_(AA_NT)_var2 (antibody, V domains shown)
VH: B1 VH
VL: EVVLTQSPGTLSLSPGERATLSCRASQTISNSYVAWYQQRPGQAPRLLIYGASSRAAGIPDRFSGSGSGTDFTLTISRLEPEDFAVYYCQHYGSSRGWTFGQGTKVEIK
notes: Whole human IgG; also called AFS variant var2
B4: DMAb-2196_des2_GP (antibody, V domains shown)
VH: B1 VH
VL: B3 VL with V2I, R40K, A57T, R96G, G97P
notes: Whole human IgG; also called DMAb-Des2_GP
B5: 2196_CDRL3_GP (antibody, V domains shown)
VH: B1 VH
VL: not shown
notes: Whole human IgG; The designs are said to be based on positions 95 and 95A, so the proline probably stands at 95A; also called DMAb-GP
B6: DMAb-2196_AFS_(AA_NT)_var3 (antibody, V domains shown)
VH: B1 VH
VL: B3 VL with T28S, I29V, N31S, V34L, R40K, Y50F, A57T, S77T, F84S
notes: Whole human IgG; also called AFS variant var3
B7: 2196_CDRL1_des2 (antibody, V domains shown)
VH: B1 VH
VL: B3 VL with V2I, R40K, A57T
notes: as the heavy chain of m2; as the light chain of m2, with the CDRL1 and CDRL1-adjacent residues of alphamod1 but residues 31 and 32 kept as in 2196 WT; Kabat numbering; Whole human IgG; also called DMAb-Des2; DMAb-2196_Des2
B8: 2196_CDRL3_Q (antibody, V domains shown)
VH: B1 VH
VL: not shown
notes: Whole human IgG; also called DMAb-Q

Columns and labels:
[1] = biological target: T1, RBD (residues 334–527 of the SARS-CoV-2 spike glycoprotein) (SARS-CoV-2, wild type (Wuhan-Hu-1 / …, UniProt P0DTC2)); experiment: cell-based or functional assay
[2] = biological target: T1, RBD (residues 334–527 of the SARS-CoV-2 …); experiment: SPR; Biacore 8k; antibody captured on a Series S Protein A chip to ~200 RU or greater; 4X serially diluted RBD starting at 1,000 nM flowed at 50 uL/min, 120 s contact, 600 s dissociation; HBS-EP+ buffer; 1:1 Langmuir fitting, steady state analysis, or two-state reaction fitting; settings: both partners purified
[3] = biological target: T1, RBD (residues 334–527 of the SARS-CoV-2 …); experiment: ELISA; plates coated with anti-his antibody, 10 ug/mL COV2_RBD-his captured; antibody from 8 ug/mL, 5X dilution series, in duplicate, 1 h at RT; anti-human-Fc-HRP detection; AUC divided by that of 2196 WT; settings: both partners purified

Binder | Kd [2] | AUC ratio to 2196 WT [3] | fold change of IC50 against 2196 WT [3] | further results
B1 | 1.8 nM |  |  | IC50 of neutralization of SARS-CoV-2 (USA-WA1/2020 spike) pseudovirus on HuCHOAce2 cells [1]: 0.08 ng/mL
B2 | 14.3 nM |  |  | 
B3 | 1.6 nM |  |  | IC50 of neutralization of SARS-CoV-2 pseudovirus on HuCHOAce2 cells [1]: 0.05 ng/mL
B4 |  |  |  | binding result [2]: binds
B5 |  | > 0.975 | < 2.14 fold | 
B6 | 3.2 nM |  |  | IC50 of neutralization of SARS-CoV-2 pseudovirus on HuCHOAce2 cells [1]: 0.06 ng/mL
B7 |  | > 0.975 | < 2.14 fold | 
B8 |  | > 0.975 | < 2.14 fold | 
